In patent publication US20100196390A1 (RINAT NEUROSCIENCE, published 2010):

What was measured:
[1] = molecular target: T1, human TrkB monomer (His ECD) (human, UniProt Q16620 32-430); assay: Biacore, 37 C
T1 construct: extracellular domain; amine-coupled to the chip
Summary of the method: (§1)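 Monovalent Fab fragments were tested at 37° C by surface plasmon resonance on a Biacore instrument, against TrkB extracellular-domain monomer amine-coupled to the chip at low capacity. Fabs were injected low to high as a 3-fold serial dilution from 100 nM for 84 sec, with a 10 minute dissociation after the top sample. The dissociation half-life was calculated from koff, which was fitted to a Langmuir binding model in BIAevaluation. The formula used was T1/2 = Log 2/koff.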

TrkB [2] = molecular target: T2, TrkB (Homo sapiens (Human), UniProt Q16620 32-430); assay: koff of Fab at 37 C; T1/2=Log2/koff
T2 sequence (Q16620 32-430 limits assumed): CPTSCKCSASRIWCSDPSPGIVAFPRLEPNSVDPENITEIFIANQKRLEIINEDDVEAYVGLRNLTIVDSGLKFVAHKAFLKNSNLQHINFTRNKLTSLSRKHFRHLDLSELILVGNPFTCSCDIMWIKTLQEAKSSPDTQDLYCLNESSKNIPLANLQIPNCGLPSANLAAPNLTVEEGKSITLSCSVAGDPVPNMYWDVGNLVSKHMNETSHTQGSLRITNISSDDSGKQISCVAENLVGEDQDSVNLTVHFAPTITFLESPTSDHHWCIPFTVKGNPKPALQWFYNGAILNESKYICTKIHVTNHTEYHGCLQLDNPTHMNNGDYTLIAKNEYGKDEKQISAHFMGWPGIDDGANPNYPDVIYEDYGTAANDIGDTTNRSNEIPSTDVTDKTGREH
Summary of the method: as §1

[3] = molecular target: T3, mouse TrkB monomer (His ECD) (mouse, UniProt P15209 32-429); assay: SPR (Biacore), TrkB His ECD monomer on chip, 37 C
T3 construct: extracellular domain; amine-coupled to the chip
T3 sequence (P15209 32-429): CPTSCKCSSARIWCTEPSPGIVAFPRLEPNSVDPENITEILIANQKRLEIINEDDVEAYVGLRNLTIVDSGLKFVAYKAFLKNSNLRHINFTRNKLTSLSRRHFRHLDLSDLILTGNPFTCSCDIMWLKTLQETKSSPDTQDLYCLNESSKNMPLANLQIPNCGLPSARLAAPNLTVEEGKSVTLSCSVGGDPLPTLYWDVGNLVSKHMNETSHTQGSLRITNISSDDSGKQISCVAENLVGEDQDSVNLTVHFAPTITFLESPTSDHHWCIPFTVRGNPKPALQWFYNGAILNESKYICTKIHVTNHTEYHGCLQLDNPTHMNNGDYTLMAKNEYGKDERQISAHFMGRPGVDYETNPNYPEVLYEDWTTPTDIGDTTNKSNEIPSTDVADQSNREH
Method: (§2) TrkB monomers (H is ECD) of human, mouse, and rat were amine-coupled to the chip at levels of 2008, 1008, and 889RU respectively in an effort to give low capacity surfaces suitable for kinetic analysis. Fabs (C1, C2, A2, 4A6, and 4B12) were diluted to 100 nM (according to their labeled concentrations by NanoDrop, using 1AU=0.6 mg/mL) to give the top concentration of a 3 fold serial dilution. Samples were injected from low to high concentration as a titration series for 84 sec, allowing a 10 minute dissociation phase for the 100 nM sample. […] The full-length mouse anti-TrkB antibody 38B8-IgG was used as a (+) control to confirm that the chip was active.
(§3) The concentrations of the Fab proteins are determined by ELISA and/or SDS-PAGE electrophoresis using a Fab of known concentration (as determined by amino acid analysis) as a standard. Kinetic association rates (kₒₙ) and dissociation rates (koff) (generally measured at 25° C. or 37° C.) are obtained simultaneously by fitting the data to a 1:1 Langmuir binding model (Karlsson, R. Roos, H. Fagerstam, L. Petersson, B., 1994 Methods Enzymology 6:99-110) using the BIAevaluation program. Equilibrium dissociation constant (KD) values are calculated as koff/kₒₙ.

[4] = molecular target: T1, human TrkB monomer (His ECD); assay: SPR (Biacore), TrkB His ECD monomer on chip, 37 C
Method: as §2, §3

[5] = molecular target: T4, rat TrkB monomer (His ECD) (rat, UniProt Q63604 32-429); assay: SPR (Biacore), TrkB His ECD monomer on chip, 37 C
T4 construct: extracellular domain; amine-coupled to the chip
T4 sequence (Q63604 32-429): as the sequence (P15209 32-429) above, with T3M, S9T, A10T, V32I, R63K, S84G, M153T, L185I, S394T counted along it
Method: as §2, §3

[6] = molecular target: T3, mouse TrkB monomer (His ECD); assay: SPR (Biacore), Fab over amine-coupled TrkB His ECD monomer, 25 C
Method: as §2, §3

[7] = molecular target: T1, human TrkB monomer (His ECD); assay: as above
Method: as §2, §3

[8] = molecular target: T4, rat TrkB monomer (His ECD); assay: as above
Method: as §2, §3

TrkB [9] = molecular target: T2, TrkB; assay: koff of Fab at 25 C; T1/2=Log2/koff
Summary of the method: as §1, with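 “25°” for “37°”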

[10] = molecular target: T1, human TrkB monomer (His ECD); assay: Biacore, 25 C
Summary of the method: as §1, with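 “25°” for “37°”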

T1 sequence (Q16620 32-430): as the sequence (Q16620 32-430 limits assumed) above

Binder | Kd [3] | koff [3] | kon [3] | Kd [4] | koff [4] | kon [4] | kon [5] | Kd [6] | koff [6] | kon [6] | Kd [7] | koff [7] | kon [7] | Kd [8] | koff [8] | kon [8] | T1/2 (TrkB [9]) | also measured
RN1026A (Fab, V domains shown, Fab) VH: QVQLVQSGAEVKKPGASVKVSCKASGYTFTNYDIIWVRQAPGQGLEWMGYINPYNRRREYNEKFKGRVTMTRDTSTSTVYMELSSLRSEDTAVYYCARLLKYRRFRYYAIDYWGQGTTVTVSS VL: DIQMTQSPSSLSASVGDRVTITCRASENVYSNLAWYQQKPGKAPKLLIYAASNLQSGVPSRFSGSGSGTDFTFTISSLQPEDIATYYCQHFWGSPFTFGQGTKLEIK | 2.27 nM | 0.00396 s⁻¹ | 1.75e+06 M⁻¹ s⁻¹ | 1.27 nM | 0.00255 s⁻¹ | 2e+06 M⁻¹ s⁻¹ | 1.41e+06 M⁻¹ s⁻¹ | – | – | – | – | – | – | – | – | – | – | T1/2 [1]: 4.53 min; T1/2 (TrkB [2]): 4.5 min; Kd [5]: 4 nM; koff [5]: 0.00924 s⁻¹
4A6 (Fab, V domains shown, Fab) VH: QVQLVQSGAEVKKPGASVKVSCKASGYTFTNYDIIWVRQAPGQGLEWMGYINPYNRRREYNEKFKGRVTMTRDTSTSTVYMELSSLRSEDTAVYYCARLLKYRRFRYYAIDYWGQGTTVTVSS VL: DIQMTQSPSSLSASVGDRVTITCHASENVYSNLAWYQQKPGKAPKLLIYAASNLQSGVPSRFSGSGSGTDYTFTISSLQPEDIATYYCQHFWGSPFTFGQGTKLEIK | 0.37 nM | 0.00066 s⁻¹ | 1.76e+06 M⁻¹ s⁻¹ | 0.17 nM | 0.000372 s⁻¹ | 2.14e+06 M⁻¹ s⁻¹ | 1.36e+06 M⁻¹ s⁻¹ | 0.02 nM | 9.24e-05 s⁻¹ | 4.35e+06 M⁻¹ s⁻¹ | 0.18 nM | 0.000705 s⁻¹ | 3.89e+06 M⁻¹ s⁻¹ | 0.27 nM | 0.000666 s⁻¹ | 2.45e+06 M⁻¹ s⁻¹ | 13.2 min | –
C2 (Fab, V domains shown, Fab) VH: QVQLVQSGAEVKKPGASVKVSCKASGYTFTNYDIIWVRQAPGQGLEWMGYINPYNDGTKYNEKFKGRVTMTRDTSTSTVYMELSSLRSEDTAVYYCARLLKYRRFRYYAIDYWGQGTTVTVSS VL: DIQMTQSPSSLSASVGDRVTITCRTSENVYSNLAWYQQKPGKAPKLLIYAASNLQSGVPSRFSGSGSGTDYTFTISSLQPEDIATYYCQHFWGSPFTFGQGTKLEIK | – | – | – | – | – | – | – | 1.44 nM | 0.000734 s⁻¹ | 510000 M⁻¹ s⁻¹ | 2.54 nM | 0.0014 s⁻¹ | 552000 M⁻¹ s⁻¹ | 2.29 nM | 0.00146 s⁻¹ | 638000 M⁻¹ s⁻¹ | 2.9 min | T1/2 [10]: 2.9 min
4B12 (Fab, V domains shown, Fab) VH: QVQLVQSGAEVKKPGASVKVSCKASGYTFTNYDIIWVRQAPGQGLEWMGYINPYNGRREYNEKFKGRVTMTRDTSTSTVYMELSSLRSEDTAVYYCARLLKYRRFRYYAIDYWGQGTTVTVSS VL: DIQMTQSPSSLSASVGDRVTITCRASEPVYSNVAWYQQKPGKAPKLLIYAASNLQSGVPSRFSGSGSGTDYTFTISSLQPEDIATYYCQHFWGSPFTFGQGTKLEIK | – | – | – | – | – | – | – | 0.06 nM | 0.000146 s⁻¹ | 2.38e+06 M⁻¹ s⁻¹ | 0.21 nM | 0.000532 s⁻¹ | 2.5e+06 M⁻¹ s⁻¹ | 0.41 nM | 0.00081 s⁻¹ | 1.99e+06 M⁻¹ s⁻¹ | 12.8 min | –
A2 (Fab, V domains shown, Fab) VH: QVQLVQSGAEVKKPGASVKVSCKASGYTFTNYDIIWVRQAPGQGLEWMGYINPYNDGTKYNEKFKGRVTMTRDTSTSTVYMELSSLRSEDTAVYYCARLLKYRRFRYYAIDYWGQGTTVTVSS VL: DIQMTQSPSSLSASVGDRVTITCRASENVYSNLAWYQQKPGKAPKLLIYAASNLQSGVPSRFSGSGSGTDYTFTISSLQPEDIATYYCQHFWYSPWTFGQGTKLEIK | – | – | – | – | – | – | – | 0.51 nM | 0.000636 s⁻¹ | 1.24e+06 M⁻¹ s⁻¹ | 1.08 nM | 0.00145 s⁻¹ | 1.34e+06 M⁻¹ s⁻¹ | 1.18 nM | 0.00152 s⁻¹ | 1.29e+06 M⁻¹ s⁻¹ | 6 min | –
